Test results taken from US20130251724A1 (GlaxoSmithKline, published 2013).
Several values for one entry are separate records, joined by “and”; a condition that tells them apart may be missing. Identical values can stand only once. Like-named read-outs stand apart in the source and are kept apart here.

How the values were obtained:
[1] = target: T1, Human OSM (human, UniProt P13725 26-221); test: BIAcore kinetics
T1 construct: Recombinant human OSM; also called hOSM; human Oncostatin M
T1 sequence: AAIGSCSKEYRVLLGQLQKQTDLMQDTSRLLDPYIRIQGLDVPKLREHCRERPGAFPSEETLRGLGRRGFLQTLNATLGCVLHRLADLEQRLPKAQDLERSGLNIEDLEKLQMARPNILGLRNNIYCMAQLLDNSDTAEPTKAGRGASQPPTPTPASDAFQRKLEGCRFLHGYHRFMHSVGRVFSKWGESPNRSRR

[2] = target: T2, Cynomolgus OSM (cynomolgus, UniProt A0A2K5VPC6 26-221); test: BIAcore kinetics
T2 construct: also called Cyno OSM; cynomolgus macaque OSM
T2 sequence: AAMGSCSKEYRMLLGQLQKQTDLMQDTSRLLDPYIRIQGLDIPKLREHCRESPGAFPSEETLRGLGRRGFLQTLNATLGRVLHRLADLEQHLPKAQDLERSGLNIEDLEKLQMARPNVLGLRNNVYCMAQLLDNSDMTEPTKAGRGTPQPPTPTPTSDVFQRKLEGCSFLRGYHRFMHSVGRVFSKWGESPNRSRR

[3] = target: T1, Human OSM; test: BIAcore kinetics; remark: listed apart in the source
[4] = target: T2, Cynomolgus OSM; test: BIAcore kinetics; remark: listed apart in the source
[5] = target: T1, Human OSM; test: cell-based or functional assay
[6] = target: T2, Cynomolgus OSM; test: cell-based or functional assay
[7] = target: T1, Human OSM; test: cell-based or functional assay; remark: listed apart in the source
[8] = target: T2, Cynomolgus OSM; test: cell-based or functional assay; remark: listed apart in the source
[9] = target: T1, Human OSM; test: cell-based or functional assay; remark: listed apart in the source
[10] = target: T1, Human OSM; test: human gp130 ELISA, inhibition of OSM binding to gp130
[11] = target: T2, Cynomolgus OSM; test: as above
[12] = target: T1, Human OSM; test: as above; remark: listed apart in the source
[13] = target: T2, Cynomolgus OSM; test: as above; remark: listed apart in the source
[14] = target: T3, Endogenous human OSM (neutrophil-derived) (human, UniProt P13725 26-221, limits assumed); test: gp130 ELISA with endogenous neutrophil-derived human OSM
T3 construct: Native OSM generated from GM-CSF stimulation of healthy human neutrophils; also called native OSM; endogenous OSM
T3 sequence: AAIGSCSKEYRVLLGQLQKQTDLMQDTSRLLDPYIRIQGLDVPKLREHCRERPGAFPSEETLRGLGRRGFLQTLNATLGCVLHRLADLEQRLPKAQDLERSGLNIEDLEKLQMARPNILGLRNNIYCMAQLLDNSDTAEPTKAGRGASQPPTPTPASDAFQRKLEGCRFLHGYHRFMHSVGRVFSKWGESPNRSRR

[15] = target: T1, Human OSM; test: cell-based or functional assay; remark: listed apart in the source
[16] = target: T2, Cynomolgus OSM; test: cell-based or functional assay; remark: listed apart in the source
[17] = target: T1, Human OSM; test: cell-based or functional assay; remark: listed apart in the source
[18] = target: T2, Cynomolgus OSM; test: cell-based or functional assay; remark: listed apart in the source
[19] = target: T1, Human OSM; test: cell-based or functional assay; remark: listed apart in the source
[20] = target: T2, Cynomolgus OSM; test: cell-based or functional assay; remark: listed apart in the source
[21] = target: Marmoset OSM (marmoset); test: cell-based or functional assay
[22] = target: T1, Human OSM; test: BIAcore kinetics, purified antibody
[23] = target: T2, Cynomolgus OSM; test: BIAcore kinetics, purified antibody
[24] = target: T1, Human OSM; test: BIAcore kinetics, purified antibody; remark: listed apart in the source
[25] = target: T2, Cynomolgus OSM; test: BIAcore kinetics, purified antibody; remark: listed apart in the source
[26] = target: T1, Human OSM; test: BIAcore kinetics, purified antibody; remark: listed apart in the source
[27] = target: T2, Cynomolgus OSM; test: BIAcore kinetics, purified antibody; remark: listed apart in the source
[28] = target: T1, Human OSM; test: BIAcore kinetics, transfection supernatant
[29] = target: T1, Human OSM; test: BIAcore kinetics, transfection supernatant; remark: listed apart in the source
[30] = target: T2, Cynomolgus OSM; test: BIAcore kinetics, transfection supernatant
[31] = target: T3, Endogenous human OSM …; test: gp130 ELISA with endogenous neutrophil-derived human OSM; remark: listed apart in the source
[32] = target: T1, Human OSM; test: SPR (ProteOn XPR36 or Biacore T100), captured supernatant, OSM as analyte; hatched cell: separate experiment
Procedure: The initial kinetic analyses for the CDRH3 screen were carried out on the ProteOn XPR36 (Biorad Laboratories) and certain supernatants were selected for more accurate kinetic analysis on the BiaCore T100.
For the ProteOn analysis, anti-human IgG (GE Healthcare/Biacore BR-1008-39) was coupled to a GLM chip (Biorad Laboratories 176-5012) by primary amine coupling. The CDRH3 variants were captured directly on to this surface and recombinant human OSM was passed over the captured antibody surface at 256, 64, 16, 4 and 1 nM, with a buffer injection alone (i.e. 0 nM) used to double reference the binding curves. Following the OSM binding event, the capture surfaces were regenerated: with 3M MgCl₂ the regeneration removed the previously captured antibody ready for another cycle of capture and binding analysis. The data was then fitted to the 1:1 model (with mass transport) inherent to the ProteOn analysis software. The run was carried out using HBS-EP (Biacore/GE-Healthcare BR-1006-69) and the analysis temperature was 25° C.
A similar method was used for analysis of constructs using the Biacore T100, anti-human IgG (GE Healthcare/Biacore BR-1008-39) was coupled to a CM5 chip (GE Healthcare/Biacore BR-1006-68) by primary amine coupling, antibodies were captured on this surface and recombinant human OSM was passed over the captured antibody surface at 256, 64, 16, 4 and 1 nM, with a buffer injection alone (i.e. 0 nM) used to double reference the binding curves. Regeneration was by using pulses of 3M 3M MgCl₂ or 100 mM phosphoric acid or using both reagents. The data was fitted to the 1:1 model inherent to the Biacore T100 analysis software. The run was carried out using HBS-EP (Biacore/GE-Healthcare BR-1006-69) and the analysis temperature was 25° C.

B1: 9G2, murine anti-OSM mAb (antibody, V domains shown)
VH: EVQLVESGGGLVEPGGSLKLSCAASGFTFSNYAMSWVRQTPEKRLEWVATISDGGSFTYYLDNVKGRFTISRDNAKNNLYLQMSHLKSDDTAMYYCARDVGHTTFWYFDVWGTGTTVTVSS
VL: DIVLTQSPVFLVISLGQRATISCRASKSVSASGYNFMHWYQQKPGQPPKVLIKYASNLESGVPARFSGSGSGTDFTLNIHPVEEEDAVTYYCQHSREFPFTFGGGTKLEIK
notes: Mouse hybridoma mAb; also called 9G2/C1; 9G2.C1
Kd [1]: 1.6 nM | Kd [2]: 0.75 nM | Kd [3]: 1.6 nM | koff [3]: 0.000121 s⁻¹ | kon [3]: 75200 M⁻¹ s⁻¹ | Kd [4]: 0.775 nM | koff [4]: 4.76e-05 s⁻¹ | kon [4]: 61400 M⁻¹ s⁻¹ | KB cell neutralisation assay, mean IC50 [5]: 0.018 µg/ml and 120 pM | KB cell neutralisation assay, mean IC50 [6]: 100 pM and 0.015 µg/ml | KB cell neutralisation assay, mean IC50 [7]: 0.163 µg/ml and 1.1 nM | KB cell neutralisation assay, mean IC50 [8]: 0.046 µg/ml and 307 pM | IC50 (read off the curve); IL-6 release from KB cells stimulated with human OSM, 25% human AB serum [9]: ~0.03 µg/mL | IC50 [10]: 0.16 µg/mL and 1.1 nM | IC50 [11]: 0.03 µg/mL and 0.2 nM | IC50 [12]: 0.038 µg/mL and 0.253 nM | IC50 [13]: 0.049 µg/mL and 0.327 nM | IC50 [14]: 0.02 µg/mL and 0.133 nM

B2: 3E3, murine anti-OSM mAb (antibody, V domains shown)
VH: EVQLVESGGDLVKPGGSLKLSCVPSGFTFSSYAMSWVRQTPEKRLEWVATISDGGSFTYYFANIQGRFTISRDNTKNNLYLQMNHLKSEDAGMYYCARDVGLTTFWYFDVWGTGTTVTVSS
VL: DIVLTQSPASLTISLGQRATISCRASKSVSPSGYDFMHWYQQKPGQPPKLLIKYASELESGVPGRFSGSGSGTDFTLNIHPVEEEDAATYFCQHSREFPFTFGGGTKLEIK
notes: Mouse hybridoma mAb; also called 3E3/A1; 3E3.A1
Kd [1]: 1.3 nM | Kd [2]: 3.28 nM | KB cell neutralisation assay, mean IC50 [5]: 0.054 µg/ml and 360 pM | KB cell neutralisation assay, mean IC50 [6]: 0.15 µg/ml and 1 nM | IC50 [10]: 0.19 µg/mL and 1.3 nM | IC50 [11]: 0.06 µg/mL and 0.4 nM

B3: Humanised 10G8 H0L1 (antibody, human IgG1, kappa, V domains shown)
VH: EVQLVESGGGLVQPGGSLRLSCAASGFTFSNYAMSWVRQAPGKGLEWVATISDGGSFTYYLDNVRGRFTISRDNAKNSLYLQMNSLRAEDTAVYYCARDVGHTTFWYFDVWGRGTLVTVSS
VL: DIVMTQSPDSLAVSLGERATINCRASKSVSAAGYNFMHWYQQKPGQPPKVLIYYASNLESGVPDRFSGSGSGTDFTLTISSLQAEDVAVYYCLHSREFPFTFGGGTKVEIKR
notes: IgG1 kappa; mature H0 heavy chain and mature L1 light chain; also called Humanised 10G8 H0L1 parent
KB cell neutralisation assay, mean IC50 [15]: 0.015 µg/ml and 102 pM | KB cell neutralisation assay, mean IC50 [16]: 0.007 µg/ml and 21 pM | KB cell neutralisation assay, mean IC50 [17]: 0.009 µg/ml and 60 pM | KB cell neutralisation assay, mean IC50 [18]: 0.007 µg/ml and 47 pM | KB cell neutralisation assay, mean IC50 [19]: 0.0028 µg/ml and 19 pM | KB cell neutralisation assay, mean IC50 [20]: 0.0014 µg/ml and 9 pM | KB cell neutralisation assay, mean IC50 [21]: 0.0017 µg/ml and 11 pM | Kd [22]: 0.355 nM | koff [22]: 0.000137 s⁻¹ | kon [22]: 387000 M⁻¹ s⁻¹ | Kd [23]: 0.251 nM | koff [23]: 0.000107 s⁻¹ | kon [23]: 426000 M⁻¹ s⁻¹ | Kd [24]: 0.445 nM | koff [24]: 0.000151 s⁻¹ | kon [24]: 340000 M⁻¹ s⁻¹ | Kd [25]: 0.341 nM | koff [25]: 0.000115 s⁻¹ | kon [25]: 338000 M⁻¹ s⁻¹ | Kd [26]: 0.125 nM | koff [26]: 8.9e-05 s⁻¹ | kon [26]: 712000 M⁻¹ s⁻¹ | Kd [27]: 0.195 nM | koff [27]: 8.31e-05 s⁻¹ | kon [27]: 427000 M⁻¹ s⁻¹ | Kd [28]: 0.25 nM | koff [28]: 9.95e-05 s⁻¹ | kon [28]: 398000 M⁻¹ s⁻¹ | Kd [29]: 0.461 nM | koff [29]: 0.000153 s⁻¹ | kon [29]: 332000 M⁻¹ s⁻¹ | Kd [30]: 0.301 nM | koff [30]: 0.000104 s⁻¹ | kon [30]: 345000 M⁻¹ s⁻¹ | IC50 [31]: 0.0058 µg/mL and 0.039 nM

B4: Humanised 10G8 H0L1(IGKV4-1) (antibody, V domains shown)
VH: EVQLVESGGGLVQPGGSLRLSCAASGFTFSNYAMSWVRQAPGKGLEWVATISDGGSFTYYLDNVRGRFTISRDNAKNSLYLQMNSLRAEDTAVYYCARDVGHTTFWYFDVWGRGTLVTVSS
VL: DIVMTQSPDSLAVSLGERATINCRASKSVSAAGYNFMHWYQQKPGQPPKVLIYWASTRESGVPDRFSGSGSGTDFTLTISSLQAEDVAVYYCLHSREFPFTFGGGTKVEIK
notes: built from the stated exchange of CDRL2; residue limits derived by me; Human gamma 1/kappa constant regions; also called H0L1(huCDRL2)
KB cell neutralisation assay, mean IC50 [17]: 0.054 µg/ml and 360 pM | KB cell neutralisation assay, mean IC50 [18]: 0.081 µg/ml and 540 pM | Kd [29]: 1.37 nM | koff [29]: 0.000221 s⁻¹ | kon [29]: 161000 M⁻¹ s⁻¹ | Kd [30]: 1.41 nM | koff [30]: 0.000212 s⁻¹ | kon [30]: 150000 M⁻¹ s⁻¹

B5: Pos 100B Met (antibody, V domains shown)
VH: EVQLVESGGGLVQPGGSLRLSCAASGFTFSSYAMSWVRQAPGKGLEWVATISDGGSFTYYLDNVRGRFTISRDNAKNSLYLQMNSLRAEDTAVYYCARDVGHTTFMYFDVWGRGTLVTVSS
VL: DIVMTQSPDSLAVSLGERATINCRASKSVSAAGYNFMHWYQQKPGQPPKVLIYYASNLESGVPDRFSGSGSGTDFTLTISSLQAEDVAVYYCLHSREFPFTFGGGTKVEIKR
notes: also called CDRH3 W100B>M
Kd [32]: 40.3 nM

B6: Humanised 10G8 H0(IGHV3-23)L1(IGK4-1) (antibody, V domains shown)
VH: EVQLVESGGGLVQPGGSLRLSCAASGFTFSSYAMSWVRQAPGKGLEWVATISDGGSFTYYLDNVRGRFTISRDNAKNSLYLQMNSLRAEDTAVYYCARDVGHTTFWYFDVWGRGTLVTVSS
VL: DIVMTQSPDSLAVSLGERATINCRASKSVSAAGYNFMHWYQQKPGQPPKVLIYWASTRESGVPDRFSGSGSGTDFTLTISSLQAEDVAVYYCLHSREFPFTFGGGTKVEIK
notes: built from the stated exchange of CDRL2; residue limits derived by me; also called H0 IGHV3_23 + L1 IGKV4_1; H0(huCDRH1)L1(huCDRL2)
KB cell neutralisation assay, mean IC50 [17]: 0.077 µg/ml and 513 pM | KB cell neutralisation assay, mean IC50 [18]: 0.114 µg/ml and 760 pM | Kd [29]: 1.56 nM | koff [29]: 0.000247 s⁻¹ | kon [29]: 159000 M⁻¹ s⁻¹ | Kd [30]: 1.47 nM | koff [30]: 0.000223 s⁻¹ | kon [30]: 152000 M⁻¹ s⁻¹
